Data taken from paper doi:10.1101/2022.04.08.487678 (bioRxiv, 2022).

Target: CcdB, biotinylated (E. coli (F-plasmid), UniProt P62554 1-101)
Experiment: flow cytometry on cells

CcdB, biotinylated, sequence (P62554 whole entry): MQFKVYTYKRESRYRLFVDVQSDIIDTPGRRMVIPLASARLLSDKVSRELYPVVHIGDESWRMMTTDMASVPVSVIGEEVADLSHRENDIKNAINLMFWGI

B1: CcdA wild type, displayed on the yeast surface (natural protein)
chain: MKQRITVTVDSDSYQLLKAYDVNISGLVSTTMQNEARRLRAERWKAENQEGMAEVARFIEMNGSFADENRDW
Kd: 0.25 ± 0.05 nM
